Drawing on patent US6448376, this text covers transcriptional activity of the E2F site reporter p4xWT CYC1 in yeast for one substance.

Some results are limits rather than exact numbers.

The test has as its target LexA-DP-1 (pLEX(HIS).DP-1: complete bacterial LexA protein fused to DP-1 residues 59 to 410) (bacterial; murine) (UniProt Q08639). In words: cell-based or functional assay.
UniProt Q08639, sequence (Q08639 59-410): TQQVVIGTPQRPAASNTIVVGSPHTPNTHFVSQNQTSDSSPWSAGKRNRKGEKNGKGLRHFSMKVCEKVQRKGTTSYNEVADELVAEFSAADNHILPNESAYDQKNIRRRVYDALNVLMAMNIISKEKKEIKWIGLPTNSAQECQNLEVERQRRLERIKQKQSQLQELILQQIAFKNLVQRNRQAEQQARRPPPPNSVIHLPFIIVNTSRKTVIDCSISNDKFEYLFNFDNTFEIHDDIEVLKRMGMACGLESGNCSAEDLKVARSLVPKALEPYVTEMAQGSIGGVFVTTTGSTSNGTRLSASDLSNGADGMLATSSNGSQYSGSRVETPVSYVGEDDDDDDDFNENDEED

The substance “GAD-E2F-5 (pGAD.E2F-5: entire murine E2F-5 as a hybrid with the GAL4 activation domain 768-881) (from UniProt P04386 768-881)” had a transcriptional activity of the E2F site reporter p4xWT CYC1 in yeast greater than 6 fold.
